According to patent US20090297524A1 (DOMANTIS, published 2009):
Changes are numbered by the printed parent chain.

T1: Recombinant human CD40L (human, UniProt P29965 108-261, limits assumed)
T1 construct: also called CD40 ligand
T1 sequence (looked up): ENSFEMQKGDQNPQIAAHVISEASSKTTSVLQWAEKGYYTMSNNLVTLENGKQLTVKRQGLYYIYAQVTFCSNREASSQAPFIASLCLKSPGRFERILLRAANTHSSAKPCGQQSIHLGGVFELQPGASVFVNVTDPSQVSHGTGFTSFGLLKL

B1: DOM.203 (other)
VH: EVQLLESGGGLVQPGGSLRLSCAASGFTFSNYTMGWVRQAPGKGLEWVSSIRPDGKITYYADSVKGRFTISRDNSKNTLYLQMNSLRAEDTAVYYCAEVYSSCAMCTPLLFDYWGQGTLVTVSS
notes: VH dAb
B2: DOM.199 (other)
VH: EVQLLESGGGLVQPGGSLRLSCAASGFTFERYGMTWVRQAPGKGLEWVSSIWPRGQKTYYADSVKGRFTISRDNSKNTLYLQMNSLRAEDTAVYYCAKGNSRYVFDYWGQGTLVTVSS
notes: VH dAb
B3: DOM-32 (other)
VH: EVQLLESGGGLVQPGGSLRLSCAASGFTFEVYQMGWVRQAPGKGLEWVSFIVPGGDLTYYADSVKGRFTISRDNSKNTLYLQMNSLRAEDTAVYYCAETWPEFDYWGQGTLVTVSS
notes: VH dAb
B4: DOM.204 (other)
VH: EVQLLESGGGLVQPGGSLRLSCAASGFTFKRYSMAWVRQAPGKGLEWVSDIGPRGFSTYYADSVKGRFTISRDNSKNTLYLQMNSLRAEDTAVYYCAKVGRGQRDTSQPFDYWGQGTLVTVSS
notes: VH dAb
B5: DOM.191 (other)
VH: EVQLLESGGGLVQPGGSLRLSCAASGFTFKLYPMTWVRQAPGKGLEWVSSIDAGGHETYYADSVKGRFTISRDNSKNTLYLQMNSLRAEDTAVYYCAKDWWDYLFDYWGQGTLVTVSS
notes: VH dAb
B6: DOM-39 (other)
VL: DIQMTQSPSSLSASVGDCVTITCRASQNIDGLLWWYQQKPGKAPKLLIYAGSGLQSGVPSRFSGSGSGTDFTLTISSLQPEDFATYYCQQKAFEPFTFGQGTKVEIKR
notes: Vk dAb
B7: DOM-45 (other)
VH: EVQLLESGGGLVQPGGSLRLSCAASGFTFGNYAMAWVRQAPGKGLEWVSKIGAQGLHTYYAGSVKGRFTISRDNSKNTLYLQMNSLRAEDTAVYYCAKQTTMDYERFDYWGQGTLVTVSS
notes: VH dAb
B8: DOM.200 (other)
VH: EVQLLESGGGLVQPGGSLRLSCAASGFTFTNYSMGWVRQAPGKGLEWVSTIRPNGTKTYYADSVKGRFTISRDNSKNTLYLQMNSLRAEDTAVYYCAKRSSAHLQRFDYWGQGTLVTVSS
notes: VH dAb
B9: DOM.188 (other)
VH: EVQLLESGGGLVQPGGSLRLSCAASGFTFTRYRMSWVRQAPGKGLEWVSGISRDGYRTYYADSVKGRFTISRDNSKNTLYLQMNSLRAEDTAVYYCAKGMTASFDYWGQGTLVTVSS
notes: VH dAb
B10: DOM.187 (other)
VH: EVQLLESGGGLVQPGGSLRLSCAASGFTFSSYSMVWVRQAPGKGLEWVSGINRGGTRTYYADSVKGRFTISRDNSKNTLYLQMNSLRAEDTAVYYCAKGWRRGFDYWGQGTLVTVSS
notes: VH dAb
B11: DOM.192 (other)
VH: B9 VH with T30S, R33P, G50S, S52N, D54S, Y56M, K98E, M100H, T101Q, S103P
notes: VH dAb
B12: DOM.198 (other)
VH: EVQLLESGGGLVQPGGSLRLSCAASGFTFERYNMSWVRQAPGKGLEWVSSIRPRGGKTYYADSVKGRFTISRDNSKNTLYLQMNSLRAEDTAVYYCAKWRREGYTGSKFDYWGQGTLVTVSS
notes: VH dAb
B13: DOM.197 (other)
VH: EVQLLESGGGLVQPGGSLRLSCAASGFTFAKYKMWWVRQAPGKGLEWVSSITPKGHSTYYADSVKGRFTISRDNSKNTLYLQMNSLRAEDTAVYYCAKRPMTPFDYWGQGTLVTVSS
notes: VH dAb
B14: DOM-21 (other)
VH: EVQLLESGGGLVQPGGSLRLSCAASGFTFANYEMGWARQAPGKGLEWVSVISEWGYSTYYADSAKGRFTISRDNSKNTLYLQMNSLRAEDTAVYYCAKLVGGTQYEFDYWGQGTLVTVSS
notes: VH dAb
B15: DOM.194 (other)
VH: EVQLLESGGGLVQPGGSLRLSCAASGFTFKQYDMRWVRQAPGKGLEWVSTISQNGTKTYYADSVKGRFTISRDNSKNTLYLQMNSLRAEDTAVYYCAKSRTGRYFDYWGQGTLVTVSS
notes: VH dAb
B16: DOM-13 (other)
VH: EVQLLESGGGLVQPGGSLRLSCAASGFTFSYYSMYWVRQAPGKGLEWVSSISPFGWGTYYADSVKGRFTISRDNSKDTLYLQMNSLRAEDTAVYYCAKYGETSGPISENFDYWGQGTLVTVSS
notes: VH dAb
B17: DOM-46 (other)
VH: EVQLLESGGGLVQPGGSLRLSCAASGFTFELYAMAWVRQAPGKGLEWVSGIGAVGETTYYADSVKGRFTISRDNSKNTLYLQMNSLRAEDTAVYYCAKEANNLSDNLVFDYWGQGTLVTVSS
notes: VH dAb
B18: DOM-12 (other)
VH: EVQLLESGGGLVQPGGSLRLSCAASGFTFRLYEMAWVRQAPGKGLEWVSGIDILGSRTYYADSVKGRFTISRDNSKNTLYLQMNSLRAEDTAVYYCAKDLSWQGFDYWGQGTLVTVSS
notes: VH dAb
B19: DOM.189 (other)
VH: EVQLLESGGGLVQPGGSLRLSCAASGFTFQMYPMGWVRQAPGKGLEWVSMIEPAGDLTYYADSVKGRFTISRDNSKNTLYLQMNSLRAEDTAVYYCAKYQEQPWFDYWGQGTLVTVSS
notes: VH dAb
B20: DOM.209 (other)
VH: EVQLLESGGGLVQPGGSLRLSCAASGFTFADYEMWWVRQAPGKGLEWVSAISRQGFATYYADSVKGRFTISRDNSKNTLYLQMNSLRAEDTAVYYCAKDLERDDFDYWGQGTLVTVSS
notes: VH dAb
B21: DOM-44 (other)
VH: EVQLLESGGGLVQPGGSLRLSCAASGFTFTSYEMGWVRQAPGKGLEWVSSIEPTGITTYYADSVKGRFTISRDNSKNTLYLQMNSLRAEDTAVYYCAKPHFTELGFDYWGQGTLVTVSS
notes: VH dAb
B22: DOM.201 (other)
VH: EVQLLESGGGLVQPGGSLRLSCAASGFTFGNYSMGWVRQAPGKGLEWVSSIGRHGGRTYYADSVKGRFTISRDNSKNTLYLQMNSLRAEDTAVYYCAKKGSTYPRFDYWGQGTLVTVSS
notes: VH dAb
B23: DOM.202 (other)
VH: EVQLLESGGGLVQPGGSLRLSCTASGFTFSHYEMGWVRQAPGKGLEWVSSIEPFGGGTYYADSVKGRFTISRDNSKNTLYLQMNSLRAEDTAVYYCAKVYPQGSFDYWGQGTLVTVSS
notes: VH dAb
B24: DOM-34 (other)
VL: DIQMTQSPSSLSASVGDRVTITCRASQWIGDSLSWYQQKPGKAPKLLIYFASYLQSGVPTRFSGSGSGTDFTLTISSLQPEDFATYYCQQYFENPVTFGQGTKVGIKR
notes: Vk dAb
B25: DOM.207 (other)
VH: EVQLLESGGGLVQPGGSLRLSCAASGFTFDKYLMSWVRQAPGKGLEWVSGIEPLGDVTYYADSVKGRFTISRDNSKNTLYLQMNSLRAEDTAVYYCAKEASGDFDYWGQGTLVTVSS
notes: VH dAb
B26: DOM-40 (other)
VH: EVQLLESGGGLVQPGGSLRLSCAASGFTFKAYDMGWVRQAPGKGLEWVSQIGRDGSFTYYADSVKGRFTISRDNSKNTLYLQMNSLRAEDTAVYYCAKPRRYAIFTFDRGQGTLVTVSS
notes: VH dAb
B27: DOM-33 (other)
VL: DIQMTQSPSSLSASVGDRVTITCRASQTIGESLHWYQQKPGKAPRLLIYFASLLQSGVPSRFSGSGSGTDFTLTISSLQPEDFATYYCQQHHMLPSTFGQGTKVEIKR
notes: Vk dAb
B28: DOM-18 (other)
VH: EVQLLESGGGLVQPGGSLRLSCAASGFTFPEYDMTWVRQAPGKGLEWVSYISSDGYSTYYADSVKGRFTISRDNSKNTLYLQMNSLRAEDTAVYYCAKPHGSPREFDYWGQGTLVTVSS
notes: VH dAb
B29: DOM-17 (other)
VH: EVQLLESGGGLVQPGGSLRLSCAASGFTFEDYGMGWARQAPGKGLEWVSSIGPLGLWTYYADSAKGRFTISRDNSKNTLYLQMNSLRAEDTAVYYCAKSPLEGLITNFDYWGQGTLVTVSS
notes: VH dAb
B30: DOM-16 (other)
VH: EVQLLESGGGLVQPGGSLRLSCAASGFTFMEYAMIWVRQAPGKGLEWVSIISPLGLSTYYADSVKGRFTISRDNSKNTLYLQMNSLRAEDTAVYYCAKYQDSSDSQYTNFDYWGQGTLVTVSS
notes: VH dAb
B31: DOM.185 (other)
VH: EVQLLESGGGLVQPGGSLRLSCAASGFTFAHYPMSWVRQAPGKGLEWVSSIGRLGNRTYYADSVKGRFTISRDNSKNTLYLQMNSLRAEDTAVYYCAKRATPVPIKGLFDYWGQGTLVTVSS
notes: VH dAb
B32: DOM.183 (other)
VH: EVQLLESGGGLVQPGGSLRLSCAASGFTFADYGMGWVRQAPGKGLEWVSSIQSSGLRTYYADSVKGRFTISRDNSKNTLYLQMNSLRAEDTAVYYCAKRANSRRGFDYWGQGTLVTVSS
notes: VH dAb
B33: DOM.195 (other)
VH: EVQLLESGGGLVQPGGSLRLSCAASGFTFGTYDMGWVRQAPGKGLEWVSRINWQGDRTYYADSVKGRFTISRDNSKNTLYLQMNSLRAEDTAVYYCAKAGFGHYVDGLGFDYWGQGTLVTVSS
notes: VH dAb

biological target: T1, Recombinant human CD40L; assay: CD40L/CD40-Fc receptor binding assay;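 further: plate assay with coated human CD40-Fc, bound ligand detected via HRP anti-biotin antibody and TMB, OD at 450 nm, lower signal indicates stronger inhibition by dAb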
Experimental: A 96 well Nunc Maxisorp assay plate was coated overnight at 4° C. with 100 μl per well of recombinant human CD40/Fc (R&D Systems) at 0.5 μg/ml in carbonate buffer. The plate was washed 3 times with 300 μl of 0.05% Tween/PBS and 3 times with 300 μl of PBS using a Tecan plate washer. The wells were blocked using 200 μl of PBS containing 2% (w/v) BSA and incubated for a minimum of 1 h at room temperature. The wells were washed as above, then 50 μl of purified dAb protein (or unpurified supernatant containing dAb from a micro-culture expression) was added to each well.
The plate was washed as described above, then 100 μl HRP conjugated anti-biotin antibody (1:5000 dilution in diluent) added to each well and the plate incubated for 1 hr at room temperature. The plate was washed again as described above using a Tecan plate washer and the assay developed using 100 μl of SureBlue 1-Component TMB MicroWell Peroxidase solution (the plate was left at room temperature for up to 20 min). The reaction was stopped by the addition of 100 μl M hydrochloric acid. The OD₄₅₀ₙₘ of the plate was assayed within 30 minutes of acid addition. The OD₄₅₀ₙₘ is proportional to the amount of bound streptavidin-HRP conjugate, therefore the greater the degree of dAb inhibition the lower the OD₄₅₀ₙₘ of the resulting signal.

Binder	binding result
B1	binds
B2	binds
B3	binds
B4	binds
B5	binds
B6	binds
B7	binds
B8	binds
B9	binds
B10	binds
B11	binds
B12	binds
B13	binds
B14	binds
B15	binds
B16	binds
B17	binds

Binder	binding result
B18	binds
B19	binds
B20	binds
B21	binds
B22	binds
B23	binds
B24	binds
B25	binds
B26	binds
B27	binds
B28	binds
B29	binds
B30	binds
B31	binds
B32	binds
B33	binds
